Assay results as given in patent US20220010008A1.
Where “and” joins values, the source holds several entries; their conditions need not be identical. Equal values may be shown once.

Tests used:
[1] = molecular target: recombinant human IL-5 protein (human) (UniProt P05113); test: FACS, biotin-IL-5 bound to CHOK1 hIL-5Ra/CSF2RB cells with Ab 0.2667 nM
[2] = molecular target: recombinant human IL-5 protein (human) (UniProt P05113); test: FACS, biotin-IL-5 bound to CHOK1 hIL-5Ra/CSF2RB cells with Ab 1.3333 nM
[3] = molecular target: recombinant human IL-5 protein (human) (UniProt P05113); test: FACS, biotin-IL-5 bound to CHOK1 hIL-5Ra/CSF2RB cells with Ab 33.3333 nM
[4] = molecular target: recombinant human IL-5 protein (human) (UniProt P05113); test: FACS, biotin-IL-5 bound to CHOK1 hIL-5Ra/CSF2RB cells with Ab 0.0021 nM
[5] = molecular target: recombinant human IL-5 protein (human) (UniProt P05113); test: FACS, biotin-IL-5 bound to CHOK1 hIL-5Ra/CSF2RB cells with Ab 0.0107 nM
[6] = molecular target: recombinant human IL-5 protein (human) (UniProt P05113); test: FACS, biotin-IL-5 bound to CHOK1 hIL-5Ra/CSF2RB cells with Ab 0.0533 nM
[7] = molecular target: recombinant human IL-5 protein (human) (UniProt P05113); test: FACS, biotin-IL-5 bound to CHOK1 hIL-5Ra/CSF2RB cells with Ab 6.6667 nM
[8] = molecular target: recombinant human IL-5 protein (human) (UniProt P05113); test: FACS, biotin-IL-5 bound to CHOK1 hIL-5Ra/CSF2RB cells with Ab 0.0004 nM
[9] = molecular target: recombinant human IL-5 protein (human) (UniProt P05113); test: SPR, human IL-5 immobilized on chip, 1:1 fit
[10] = molecular target: recombinant human IL-5 protein (human) (UniProt P05113); test: cell-based or functional assay
[11] = molecular target: recombinant human IL-5 protein with His tag (human) (UniProt P05113); test: ELISA, biotin-human IL-5 on streptavidin; antibody 0.1067 nM
[12] = molecular target: recombinant human IL-5 protein with His tag (human) (UniProt P05113); test: ELISA, biotin-human IL-5 on streptavidin; antibody 0.0009 nM
[13] = molecular target: recombinant human IL-5 protein with His tag (human) (UniProt P05113); test: ELISA, biotin-human IL-5 on streptavidin; antibody 0.5333 nM
[14] = molecular target: recombinant human IL-5 protein with His tag (human) (UniProt P05113); test: ELISA, biotin-human IL-5 on streptavidin; antibody 0.0213 nM
[15] = molecular target: recombinant human IL-5 protein with His tag (human) (UniProt P05113); test: ELISA, biotin-human IL-5 on streptavidin; antibody 2.6667 nM
[16] = molecular target: recombinant human IL-5 protein with His tag (human) (UniProt P05113); test: ELISA, biotin-human IL-5 on streptavidin; antibody 0.0002 nM
[17] = molecular target: recombinant human IL-5 protein with His tag (human) (UniProt P05113); test: ELISA, biotin-human IL-5 on streptavidin; antibody 13.3333 nM
[18] = molecular target: recombinant human IL-5 protein with His tag (human) (UniProt P05113); test: ELISA, biotin-human IL-5 on streptavidin; antibody 0.0043 nM

Binder | Fluorescence intensity [1] | Fluorescence intensity [2] | Fluorescence intensity [3] | Fluorescence intensity [4] | Fluorescence intensity [5] | Fluorescence intensity [6] | Fluorescence intensity [7] | Fluorescence intensity [8] | Kd [9] [pM] | koff [9] [s⁻¹] | kon [9] [M⁻¹ s⁻¹] | RLU, CTLL-2 cell proliferation stimulated by IL-5, Ab conc. 0.000170667 nM [10] | RLU, CTLL-2 cell proliferation stimulated by IL-5, Ab conc. 0.000853333 nM [10] | RLU, CTLL-2 cell proliferation stimulated by IL-5, Ab conc. 0.004266667 nM [10] | RLU, CTLL-2 cell proliferation stimulated by IL-5, Ab conc. 0.02133333 nM [10] | RLU, CTLL-2 cell proliferation stimulated by IL-5, Ab conc. 0.1066667 nM [10] | RLU, CTLL-2 cell proliferation stimulated by IL-5, Ab conc. 0.5333334 nM [10] | RLU, CTLL-2 cell proliferation stimulated by IL-5, Ab conc. 2.666667 nM [10] | RLU, CTLL-2 cell proliferation stimulated by IL-5, Ab conc. 13.33333 nM [10] | RLU, CTLL-2 cell proliferation stimulated by IL-5, Ab conc. 66.66666 nM [10] | other results
147D7H2 (murine hybridoma lead antibody) (antibody, V domains shown) VH: EVQLQQSGAELVKPGASVKLSCTASGFNIKDYFIHWVKQRTEQGLEWIGRIDTEDGETKYAPKFQGKATITIDTSSNTAYLYFSSLTSEDTAMYYCARYGNYVAMDYWGQGTSVTVSS VL: QIVLTQSPALMSASPGEKVTMTCSASSSVSYMFWYQQKPSSSPKPWIYLTSKLASGVPARFSGSGSGTSYSLTISSVEAEDAATYYCQQWNSNPYTFGGGTKLEIK | 74 | 55 | 31 | 93 | 88 | 90 | 36 | 96 | < 50.4 | < 1e-05 | 198000 | 56800 RLU and 61000 RLU | 56400 RLU and 57300 RLU | 50600 RLU and 55900 RLU | 49000 RLU and 45200 RLU | 26500 RLU and 26300 RLU | 16700 RLU and 15200 RLU | 13700 RLU and 14400 RLU | 12900 RLU and 13500 RLU | 10700 RLU and 11300 RLU | RLU, CTLL-2 cell proliferation stimulated by IL-5, Ab conc. 3.41333E-05 nM [10]: 58900 RLU and 59800 RLU; RLU, TF-1 cell proliferation stimulated by IL-5, Ab conc. 0.00001 nM [10]: 111000 RLU and 112000 RLU; RLU, TF-1 cell proliferation stimulated by IL-5, Ab conc. 0.00003 nM [10]: 111000 RLU and 113000 RLU; RLU, TF-1 cell proliferation stimulated by IL-5, Ab conc. 0.00017 nM [10]: 116000 RLU and 112000 RLU; RLU, TF-1 cell proliferation stimulated by IL-5, Ab conc. 0.00085 nM [10]: 105000 RLU; RLU, TF-1 cell proliferation stimulated by IL-5, Ab conc. 0.00427 nM [10]: 90300 RLU and 86300 RLU; RLU, TF-1 cell proliferation stimulated by IL-5, Ab conc. 0.02133 nM [10]: 72200 RLU and 55900 RLU; RLU, TF-1 cell proliferation stimulated by IL-5, Ab conc. 0.10667 nM [10]: 42300 RLU and 43600 RLU; RLU, TF-1 cell proliferation stimulated by IL-5, Ab conc. 0.53333 nM [10]: 36200 RLU and 39400 RLU; RLU, TF-1 cell proliferation stimulated by IL-5, Ab conc. 2.66667 nM [10]: 39900 RLU and 38100 RLU; RLU, TF-1 cell proliferation stimulated by IL-5, Ab conc. 13.33333 nM [10]: 35500 RLU and 37500 RLU
154F10G8 (murine hybridoma lead antibody) (antibody, V domains shown) VH: QVQLQQPGAELVKPGASVKLSCKASGYTFTSYWITWVKQRPGQGLEWIGDIYPGSGSTFYNEKFKSEATLTVDTSSSTAYMQLSSLTSEDSAVFYCSTETTLGYWGQGTTLTVSS VL: DVLMTQTPLSLPVSLGDQASISCRSSQSIVHNNGNTYLEWYLQKPGQSPKLLIYKVSNRFSGVPDRFSGSGSGTDFTLKISRVEAEDLGVYYCFQGSHVPFTFGSGTKLEIK | 86 | 66 | 34 | 91 | 91 | 92 | 43 | 90 | 158 | 6.65e-05 | 422000 | 57900 RLU and 56300 RLU | 64800 RLU and 54500 RLU | 64200 RLU and 64300 RLU | 56900 RLU and 52300 RLU | 36100 RLU and 30000 RLU | 21500 RLU and 20200 RLU | 19700 RLU and 17100 RLU | 16200 RLU and 14700 RLU | 11500 RLU and 10900 RLU | RLU, CTLL-2 cell proliferation stimulated by IL-5, Ab conc. 3.41333E-05 nM [10]: 58700 RLU and 61300 RLU; RLU, TF-1 cell proliferation stimulated by IL-5, Ab conc. 0.00001 nM [10]: 108000 RLU and 113000 RLU; RLU, TF-1 cell proliferation stimulated by IL-5, Ab conc. 0.00003 nM [10]: 110000 RLU and 115000 RLU; RLU, TF-1 cell proliferation stimulated by IL-5, Ab conc. 0.00017 nM [10]: 114000 RLU and 108000 RLU; RLU, TF-1 cell proliferation stimulated by IL-5, Ab conc. 0.00085 nM [10]: 99300 RLU and 103000 RLU; RLU, TF-1 cell proliferation stimulated by IL-5, Ab conc. 0.00427 nM [10]: 76100 RLU and 79700 RLU; RLU, TF-1 cell proliferation stimulated by IL-5, Ab conc. 0.02133 nM [10]: 54800 RLU and 57500 RLU; RLU, TF-1 cell proliferation stimulated by IL-5, Ab conc. 0.10667 nM [10]: 42100 RLU and 51500 RLU; RLU, TF-1 cell proliferation stimulated by IL-5, Ab conc. 0.53333 nM [10]: 40600 RLU and 42300 RLU; RLU, TF-1 cell proliferation stimulated by IL-5, Ab conc. 2.66667 nM [10]: 34500 RLU and 42000 RLU; RLU, TF-1 cell proliferation stimulated by IL-5, Ab conc. 13.33333 nM [10]: 33800 RLU and 35300 RLU
151G3B11 (murine hybridoma lead antibody) (antibody, V domains shown) VH: EVHLQQSGAELVKPGASVKLSCTASGFNIKDYYMHWVKQRTEQGLEWIGRIDPEDGETKYAPKFQGQATITADTSSNTANLQLSSLTSEDTAVYYCARYGNFPDYWGPGTTLTVSS VL: QIVLTQSPALMSASPGEKVTMTCSASSSVSYMYWYQQKPRSSPKPWIYLTSKLASGVPARFSGSGSGTSYSLTISSMEAEDAATYYCQQWNSNPYTFGGGTKLEIK | 69 | 46 | 30 | 86 | 87 | 84 | 34 | 93 | 18.6 | 9.04e-06 | 486000 | 58000 RLU and 54700 RLU | 56500 RLU and 56300 RLU | 53600 RLU and 50900 RLU | 39300 RLU and 38800 RLU | 14000 RLU and 12200 RLU | 12500 RLU and 11700 RLU | 8720 RLU and 8840 RLU | 7410 RLU and 6600 RLU | 6500 RLU and 5240 RLU | RLU, CTLL-2 cell proliferation stimulated by IL-5, Ab conc. 3.41333E-05 nM [10]: 60600 RLU and 48600 RLU; RLU, TF-1 cell proliferation stimulated by IL-5, Ab conc. 0.00001 nM [10]: 104000 RLU and 105000 RLU; RLU, TF-1 cell proliferation stimulated by IL-5, Ab conc. 0.00003 nM [10]: 95400 RLU and 98300 RLU; RLU, TF-1 cell proliferation stimulated by IL-5, Ab conc. 0.00017 nM [10]: 86500 RLU and 91300 RLU; RLU, TF-1 cell proliferation stimulated by IL-5, Ab conc. 0.00085 nM [10]: 72700 RLU and 70700 RLU; RLU, TF-1 cell proliferation stimulated by IL-5, Ab conc. 0.00427 nM [10]: 51100 RLU and 54700 RLU; RLU, TF-1 cell proliferation stimulated by IL-5, Ab conc. 0.02133 nM [10]: 49900 RLU and 47200 RLU; RLU, TF-1 cell proliferation stimulated by IL-5, Ab conc. 0.10667 nM [10]: 40400 RLU; RLU, TF-1 cell proliferation stimulated by IL-5, Ab conc. 0.53333 nM [10]: 35100 RLU and 37700 RLU; RLU, TF-1 cell proliferation stimulated by IL-5, Ab conc. 2.66667 nM [10]: 37900 RLU and 34300 RLU; RLU, TF-1 cell proliferation stimulated by IL-5, Ab conc. 13.33333 nM [10]: 35300 RLU and 36600 RLU
151G3B11 (murine hybridoma antibody) (antibody, V domains shown) VH: EVHLQQSGAELVKPGASVKLSCTASGFNIKDYYMHWVKQRTEQGLEWIGRIDPEDGETKYAPKFQGQATITADTSSNTANLQLSSLTSEDTAVYYCARYGNFPDYWGPGTTLTVSS VL: QIVLTQSPALMSASPGEKVTMTCSASSSVSYMYWYQQKPRSSPKPWIYLTSKLASGVPARFSGSGSGTSYSLTISSMEAEDAATYYCQQWNSNPYTFGGGTKLEIK |  |  |  |  |  |  |  |  |  |  |  |  |  |  |  |  |  |  |  |  | OD450 nm [11]: 3.5 and 3.4; OD450 nm [12]: 0.185 and 0.186; OD450 nm [13]: 4.03 and 3.75; OD450 nm [14]: 2.02 and 2.11; OD450 nm [15]: 4.07 and 3.8; OD450 nm [16]: 0.103 and 0.094; OD450 nm [17]: 4.07 and 4.04; OD450 nm [18]: 0.625 and 0.609
